Results as given in patent US20090068110A1, “ANTIBODIES TO INSULIN-LIKE GROWTH FACTOR RECEPTOR” (Genentech, Inc., priority 2006, published 2009).

B1: 10H5: mouse monoclonal anti-IGF-1R antibody from hybridoma 10H5.3.4, ATCC PTA-7007 (antibody, V domains shown)
VH: QVQLQQPGAELVKPGASVTLSCKASGYTFTRFWIHWVKQRPGQGLEWIGEINPSNGRTNYNENFKNKATLTVDTSSSTAYMQLSSLTSEVSVVYYCARGGRLDQWGQGTT
VL: DIVMTQSQKFMSTSLGDRVSVTCKASQNVGSNVAWYQQKPGQSPEALIYSASYRYSGVPDRFTGSGSGTDFTLTISNVQSEDLAEYFCHQYNNYPYTFGGGTKVEIKR
B2: 9F2: mouse monoclonal anti-IGF-1R antibody from hybridoma 9F2.6.2, ATCC PTA-7018 (antibody, V domains shown)
VH: QIQLVQSGPELKKPGETVKISCKASGYTLANYGMNWVKQAPGKGFKWMGWINTNTGKPTYSDEFKGRFVFSLETSASTAYLLINNLSNEDTATYFCARSIYYYGSRYFNVWGAGTT
VL: DIQMTQSTSSLSASLGDRVTISCRASQDINNYLTWYQQKPDGTVKLLIYYTSRLHSGVPSRFSGSGSGTDYSLTITNLEQEDFATYFCQQGNTLPWTFGEGTKVEIKR

Columns and labels:
MCF7 cells = test: cell viability assay ([…]-GLO), MCF7; type: cell-based, human; parameters: key to Effect of IR3, 6D2, 9F2, and 10H5: +: growth inhibition; −: no or weak effect; details: MCF7, Breast Adenocarcinoma
Procedure: (§1) The different cell lines were cultured in their respective culture media at 37° C. in a humidified atmosphere of 5% CO2. Subsequently, cells were detached from tissue-culture flasks using the cell-dissociation solution, TRIPLE SELECT™ solution (InVitrogen, Carlsbad, Calif., USA), and centrifuged at 1000 rpm for five minutes. Detached cells were washed once with PBS, counted, and seeded in 96-well plates (Corning, N.Y., USA) at 2000 cells per well in 100 μL of culture media. After an overnight incubation at 37° C. in a humidified atmosphere of 5% CO2, the cell-culture medium was replaced with 50 μL of starvation medium consisting of serum-free RPMI 1640™ medium without phenol red. The cells were then starved for five hours in the incubator before addition of 25 μL of each anti-IGF-1R monoclonal antibody at various dilutions in serum-free RPMI 1640™ phenol red-free media. Later, 25 μL of phenol red-free RPMI 1640™ media supplemented with 4% of fetal bovine serum (FBS) (Sigma) with or without 4 ng/ml of human recombinant IGF-I were added on top of the 50 μL of antibody. The cells were then placed at 37° C. with 5% CO2 for 5 to 6 days. At the end of the assay, cell viability was measured using the […]-GLO® kit according to the manufacturer's instructions (Promega, Madison, Wis., USA).
For the cell viability assay, MCF7 cells were seeded onto 96-well plates at 2000 cells/well and incubated overnight at 37° C. in a humidified atmosphere of 5% CO2/95% air in RPMI 1640™ medium supplemented with 10% FBS (Sigma, St. Louis, Mo.) and 1% GLUTAMAX™ reagent (Promega, Madison, Wis.). The next day cells were starved in serum-free RPMI 1640™ medium (phenol red-free) for five hours followed by addition of serially diluted human chimeric versions of 9F2, 2B4, and 10H5, as well as h10H5.vX, for one hour. Subsequently, phenol red-free PRMI 1640™ medium supplemented with FBS or IGF-I was added to reach a final concentration of 1% FBS and 1 ng/mL IGF-I. Cells were then incubated with continuous IGF-1R antibody exposure. After five days, the cell viability was then determined using a […]-GLO™ kit (Promega, Madison, Wis.) according to the manufacturer's instructions.

PC3 = test: cell viability assay, PC3; type: cell-based, human; parameters: key: +: growth inhibition; −: no or weak effect; details: PC3, Prostate Adenocarcinoma
Procedure: as §1

T47D = test: cell viability assay, T47D; type: cell-based, human; parameters: key: +: growth inhibition; −: no or weak effect; details: Breast Ductal Carcinoma
Procedure: as §1

HELA = test: cell viability assay, HELA; type: cell-based, human; parameters: key: +: growth inhibition; −: no or weak effect; details: Cervix Adenocarcinoma
Procedure: as §1

KM12 = test: cell viability assay, KM12; type: cell-based, human; parameters: key: +: growth inhibition; −: no or weak effect; details: KM12, Colorectal Adenocarcinoma
Procedure: as §1

DLD1 = test: cell viability assay, DLD1; type: cell-based, human; parameters: key: +: growth inhibition; −: no or weak effect; details: DLD1, Colorectal Adenocarcinoma
Procedure: as §1

IGF-1R = IGF-1R (Homo sapiens, UniProt P08069); test: BIACORE surface-plasmon resonance, human IGF-1R; type: binding; parameters: containing the extracellular domain (ECD, amino acids 1-902) tagged with 10 or 12 histidine residues at the carboxyl terminus; His10 or His12 (C); made in house; host or cells: CHO cells; details: affinity measurements, FIG. 14
Procedure: Binding affinities of antibodies to IGF-1R were determined by surface-plasmon resonance measurements on a BIACORE™ 3000 instrument (BIAcore, Inc.). Human IGF-1R-ECD was immobilized at a density of about 500 RU on the flow cells of a PIONEER™ CM5 sensor chip. Immobilization was achieved by random coupling through amino groups using a protocol provided by the manufacturer. Sensorgrams were recorded for binding of anti-IGF-1R Fab or IgG to these surfaces by injection of a series of solutions ranging from 500 nM to 3.1 nM and 250 nM to 0.78 nM in 2-fold increments, respectively. The signal from the reference cell was subtracted from the observed sensorgram. Kinetic constants were calculated by nonlinear regression analysis of the data according to a 1:1 Languir binding model using software supplied by the manufacturer. […]
Binding affinities of selected antibodies to IGF-1R were determined by surface plasmon resonance measurements on a BIACORE™ 3000 instrument (BIAcore, Inc.). […] Sensorgrams were recorded for binding of anti-IGF-1R Fab or IgG to these surfaces by injection of a series of solutions ranging from 500 nM to 3.1 nM and 250 nM to 0.78 nM in two-fold increments, respectively. […] Kinetic constants were calculated by non-linear regression analysis of the data according to a 1:1 Languir binding model using software supplied by the manufacturer.

Molecule | Effect of IR3, 6D2, 9F2, and 10H5 (MCF7 cells) | Effect of IR3, 6D2, 9F2, and 10H5 (PC3) | Effect of IR3, 6D2, 9F2, and 10H5 (T47D) | Effect of IR3, 6D2, 9F2, and 10H5 (HELA) | Effect of IR3, 6D2, 9F2, and 10H5 (KM12) | Effect of IR3, 6D2, 9F2, and 10H5 (DLD1) | binding to human IGF-1R (IGF-1R)
B1 | + | − | − | + | − | − | strong binding to human IGF-1R
B2 | + | − | − | + | − | − | strong binding to human IGF-1R
